Test results taken from publication PMC12713088, “Arabidopsis TRB Proteins Form Two Closely Related Complexes to Mediate H3K4me3 Demethylation and Transcriptional Repression” (Advanced Science, 2025).

Tests used:
[1] = molecular target: T1, ICU11-GST, recombinant (gel filtration) (Arabidopsis thaliana, UniProt Q3ED68 1-397); assay: SEC; purified proteins mixed in equivalent molar amounts, 4 °C overnight, Superose 6 10/300GL; fractions detected by immunoblotting (GST, FLAG, MBP, HIS); conditions: both partners purified
T1 construct: ICU11, Arabidopsis thaliana, AT1G22950; full length in pGEX6P-1; May be the same construct as m20 in some pull-downs; source: E. coli BL21, purified (GST beads)
T1 sequence (looked up): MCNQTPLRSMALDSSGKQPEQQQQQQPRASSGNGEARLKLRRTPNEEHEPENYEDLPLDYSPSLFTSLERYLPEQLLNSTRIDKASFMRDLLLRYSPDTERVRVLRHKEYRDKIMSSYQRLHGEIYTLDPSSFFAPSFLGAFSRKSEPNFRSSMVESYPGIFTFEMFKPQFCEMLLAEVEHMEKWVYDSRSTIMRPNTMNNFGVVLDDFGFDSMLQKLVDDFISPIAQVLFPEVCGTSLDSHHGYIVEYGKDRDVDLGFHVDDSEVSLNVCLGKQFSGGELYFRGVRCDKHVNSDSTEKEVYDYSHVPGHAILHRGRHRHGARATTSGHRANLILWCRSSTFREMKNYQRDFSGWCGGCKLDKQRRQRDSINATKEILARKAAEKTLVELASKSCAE

[2] = molecular target: T2, ICU11, recombinant, GST- or MBP-tagged (pull-down) (Arabidopsis thaliana, UniProt Q3ED68 1-397); assay: pull-down; purified proteins mixed in GST-tag lysis buffer (20 mM Tris-HCl pH 7.5, 150 mM NaCl, 1 mM DTT) at 4 °C for 1 h, then GST or MBP beads; immunoblot with GST, MBP or His antibody; conditions: both partners purified
T2 construct: ICU11, Arabidopsis thaliana, AT1G22950; full length in pGEX6P-1 (GST) or pET-30a (MBP); source: E. coli BL21, purified (GST beads or MBP beads); not shown: GST or MBP (both forms were made)
T2 sequence (looked up): T1 sequence (looked up)

[3] = molecular target: T3, TRB1-GH1Δ (Arabidopsis thaliana, UniProt Q8VWK4 1-300, del114-185); assay: EMSA; EMSA: 10 mM Tris-HCl pH 7.5, 50 mM NaCl, 1 mM EDTA, 5% glycerol, 1 mM DTT, 25 C, 30 min, 20 ng DNA + 1 ug protein; ITC: 20 mM Tris-HCl pH 7.5, 150 mM NaCl, 25 C, 5 uM protein, 100 uM DNA; conditions: protein: recombinant; label: Cy5 at 5' of strand 1; blunt
T3 sequence: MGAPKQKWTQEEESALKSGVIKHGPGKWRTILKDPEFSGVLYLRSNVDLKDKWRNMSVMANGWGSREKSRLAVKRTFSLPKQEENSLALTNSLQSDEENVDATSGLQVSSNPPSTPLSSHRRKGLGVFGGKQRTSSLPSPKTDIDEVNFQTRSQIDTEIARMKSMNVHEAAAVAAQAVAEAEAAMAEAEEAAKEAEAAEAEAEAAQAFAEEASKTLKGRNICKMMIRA

[4] = molecular target: T4, TRB1-1 (Arabidopsis thaliana, UniProt Q8VWK4 1-185); assay: as above; conditions: protein: recombinant; tags: His; label: Cy5 at 5' of strand 1; blunt
T4 sequence: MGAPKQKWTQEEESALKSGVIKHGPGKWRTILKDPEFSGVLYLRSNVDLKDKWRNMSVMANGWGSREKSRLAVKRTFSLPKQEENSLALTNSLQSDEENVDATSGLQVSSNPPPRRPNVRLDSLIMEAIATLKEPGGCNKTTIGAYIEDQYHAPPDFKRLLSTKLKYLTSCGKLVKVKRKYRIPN

[5] = molecular target: T5, TRB1-MybΔ-GH1Δ (Arabidopsis thaliana, UniProt Q8VWK4 61-300, del1-60;del114-185); assay: as above; conditions: protein: recombinant; label: Cy5 at 5' of strand 1; blunt
T5 sequence: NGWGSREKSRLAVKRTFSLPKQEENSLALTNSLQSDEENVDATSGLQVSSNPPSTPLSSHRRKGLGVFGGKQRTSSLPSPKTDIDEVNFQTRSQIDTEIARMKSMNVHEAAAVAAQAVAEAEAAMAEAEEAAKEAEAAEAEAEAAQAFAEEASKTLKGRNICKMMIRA

[6] = molecular target: T6, TRB2 (Arabidopsis thaliana, UniProt Q9FJW5 1-299); assay: as above; conditions: protein: recombinant; tags: His; label: Cy5 at 5' of strand 1; blunt
T6 sequence: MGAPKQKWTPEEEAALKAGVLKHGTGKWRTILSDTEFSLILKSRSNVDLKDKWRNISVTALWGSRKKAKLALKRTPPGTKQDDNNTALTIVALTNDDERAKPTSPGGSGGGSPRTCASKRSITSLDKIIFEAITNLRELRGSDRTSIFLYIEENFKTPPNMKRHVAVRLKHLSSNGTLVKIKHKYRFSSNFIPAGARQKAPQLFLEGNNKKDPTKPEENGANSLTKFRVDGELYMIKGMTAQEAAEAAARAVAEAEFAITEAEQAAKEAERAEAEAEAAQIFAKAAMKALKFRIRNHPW

[7] = molecular target: T7, TRB1 (Arabidopsis thaliana, UniProt Q8VWK4 1-300); assay: as above; conditions: protein: recombinant; tags: His; label: Cy5 at 5' of strand 1; blunt
T7 sequence: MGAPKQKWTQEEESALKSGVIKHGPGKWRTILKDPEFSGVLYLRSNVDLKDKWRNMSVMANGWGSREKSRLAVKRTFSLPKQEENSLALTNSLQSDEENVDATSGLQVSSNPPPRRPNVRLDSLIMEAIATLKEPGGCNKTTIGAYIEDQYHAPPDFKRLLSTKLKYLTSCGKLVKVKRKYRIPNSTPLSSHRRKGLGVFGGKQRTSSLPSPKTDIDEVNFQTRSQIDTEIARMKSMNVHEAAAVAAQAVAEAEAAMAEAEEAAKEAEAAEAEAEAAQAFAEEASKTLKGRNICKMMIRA

[8] = molecular target: T8, TRB3 (Arabidopsis thaliana, UniProt Q9M2X3 1-295); assay: as above; conditions: protein: recombinant; tags: His; label: Cy5 at 5' of strand 1; blunt
T8 sequence: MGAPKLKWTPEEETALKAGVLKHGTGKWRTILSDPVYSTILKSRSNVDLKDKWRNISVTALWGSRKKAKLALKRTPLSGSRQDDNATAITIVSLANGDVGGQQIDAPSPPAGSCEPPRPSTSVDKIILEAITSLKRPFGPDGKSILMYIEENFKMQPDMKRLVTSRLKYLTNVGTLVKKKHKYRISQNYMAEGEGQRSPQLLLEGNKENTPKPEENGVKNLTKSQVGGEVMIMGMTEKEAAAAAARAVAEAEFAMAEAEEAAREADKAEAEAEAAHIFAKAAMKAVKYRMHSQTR

[9] = molecular target: T9, TRB1;NAC050-N (Arabidopsis thaliana;Arabidopsis …, UniProt Q8VWK4;Q9SQX9 1-300;1-184, |); assay: EMSA; larger complex, enhanced vs TRB1 alone; EMSA: 10 mM Tris-HCl pH 7.5, 50 mM NaCl, 1 mM EDTA, 5% glycerol, 1 mM DTT, 25 C, 30 min, 20 ng DNA + 1 ug protein; ITC: 20 mM Tris-HCl pH 7.5, 150 mM NaCl, 25 C, 5 uM protein, 100 uM DNA; conditions: protein: recombinant;recombinant; tags: His;MBP; label: Cy5 at 5' of strand 1; blunt
T9 sequence 1: T7 sequence
T9 sequence 2: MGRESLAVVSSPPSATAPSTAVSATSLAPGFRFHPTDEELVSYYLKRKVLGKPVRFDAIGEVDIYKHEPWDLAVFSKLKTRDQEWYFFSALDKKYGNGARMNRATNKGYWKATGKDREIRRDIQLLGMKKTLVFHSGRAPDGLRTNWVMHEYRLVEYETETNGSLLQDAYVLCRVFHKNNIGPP

[10] = molecular target: T10, TRB1;HTH1 (Arabidopsis thaliana;Arabidopsis …, UniProt Q8VWK4;Q9SHL4 1-300;1-275, |); assay: as above; conditions: protein: recombinant;recombinant; tags: His;His or MBP (EMSA construct not specified); label: Cy5 at 5' of strand 1; blunt
T10 sequence 1: T7 sequence
T10 sequence 2: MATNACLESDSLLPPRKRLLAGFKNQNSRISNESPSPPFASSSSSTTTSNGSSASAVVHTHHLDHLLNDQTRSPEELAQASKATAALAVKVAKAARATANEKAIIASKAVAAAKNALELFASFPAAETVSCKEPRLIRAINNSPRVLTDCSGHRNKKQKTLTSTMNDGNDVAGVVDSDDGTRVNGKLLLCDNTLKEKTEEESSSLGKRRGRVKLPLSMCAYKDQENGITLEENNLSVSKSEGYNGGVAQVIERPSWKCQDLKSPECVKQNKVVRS

[11] = molecular target: T9, TRB1;NAC050-N; assay: ITC; enhanced vs TRB1 alone; Kd only in figure; EMSA: 10 mM Tris-HCl pH 7.5, 50 mM NaCl, 1 mM EDTA, 5% glycerol, 1 mM DTT, 25 C, 30 min, 20 ng DNA + 1 ug protein; ITC: 20 mM Tris-HCl pH 7.5, 150 mM NaCl, 25 C, 5 uM protein, 100 uM DNA; conditions: protein: recombinant;recombinant; tags: His;MBP; blunt
[12] = molecular target: T10, TRB1;HTH1; assay: as above; conditions: protein: recombinant;recombinant; tags: His;His or MBP (EMSA construct not specified); blunt

B1: TRB1-His, recombinant (natural protein, Arabidopsis thaliana, UniProt Q8VWK4 1-300, looked up)
chain: T7 sequence
notes: TRB1, Arabidopsis thaliana, AT1G49950; full length in the vector pSMT3; pSMT3 is recalled to add an N-terminal His-SUMO; source: E. coli BL21, purified (His beads)
B1: binds [1]; binds [2].

B2: Probe 1 (P1) (dsDNA)
DNA 1: ATCGAATTTAGGGCAAAATG
DNA 2: CATTTTGCCCTAAATTCGAT
B2: binds [3]; binds [4]; no binding [5]. B2: binds [6]; binds [7]; binds [8]. B2: binds [9]; binds [10].

B3: Probe 1 for ITC (dsDNA)
DNA 1: ATCGAATTTAGGGCAAAATG
DNA 2: CATTTTGCCCTAAATTCGAT
B3: binds [11]; binds [12].
